Measured values taken from publication PMC10766394.

Target: anti-VEEV human IgG1 antibody F5 with the loss of function Fc mutations L234A and L235A (hF5-LALA) (human)
Assay: ELISA

mouse complement component C1q from normal mouse serum (from UniProt P98086;P14106;Q02105) (complex)
fold reduction in binding against hF5-WT at 2.8 µg/ml: 5.1 fold
